Experimental data taken from article PMC4772808, “Insights from the reconstitution of the divergent outer kinetochore of Drosophila melanogaster” (Open Biology, 2016).

T1: DmMis12a complex (Mis12:Nnf1a:Kmn1) (Drosophila melanogaster, UniProt Q9VS01 1-181; Q7JZC9 1-194; Q9VYX4 1-183)
T1 construct: Mis12 subunit of the Drosophila melanogaster Mis12 complex; Nnf1a (Nnf1R-1), Drosophila melanogaster; Kmn1, the Nsl1 orthologue of Drosophila melanogaster; source: E. coli BL21(DE3) Rosetta, co-expressed (pST44), purified (His-Trap, ResourceQ, Superdex 200); copies: 1 + 1 + 1
T1 sequence (looked up) 1: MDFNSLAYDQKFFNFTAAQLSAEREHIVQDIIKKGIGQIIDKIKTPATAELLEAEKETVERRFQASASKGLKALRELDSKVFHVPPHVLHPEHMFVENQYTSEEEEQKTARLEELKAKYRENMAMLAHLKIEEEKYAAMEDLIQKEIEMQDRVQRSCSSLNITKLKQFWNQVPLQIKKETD
T1 sequence (looked up) 2: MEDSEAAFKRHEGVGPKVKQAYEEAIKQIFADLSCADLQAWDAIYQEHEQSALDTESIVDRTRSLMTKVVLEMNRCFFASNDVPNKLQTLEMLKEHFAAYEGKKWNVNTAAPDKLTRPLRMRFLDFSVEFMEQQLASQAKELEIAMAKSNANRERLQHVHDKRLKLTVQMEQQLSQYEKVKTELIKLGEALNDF
T1 sequence (looked up) 3: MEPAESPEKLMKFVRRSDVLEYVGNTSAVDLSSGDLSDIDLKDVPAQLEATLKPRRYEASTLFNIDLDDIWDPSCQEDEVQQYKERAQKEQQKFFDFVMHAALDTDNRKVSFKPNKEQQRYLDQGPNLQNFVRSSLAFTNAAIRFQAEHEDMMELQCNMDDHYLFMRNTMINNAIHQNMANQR

T2: Mis12a:Spc105R^1707–1960 complex (Drosophila melanogaster, UniProt Q9VS01 1-181; Q7JZC9 1-194; Q9VYX4 1-183; M9PIC9 1707-1960)
T2 construct: Mis12 subunit of the Drosophila melanogaster Mis12 complex; Nnf1a (Nnf1R-1), Drosophila melanogaster; Kmn1, the Nsl1 orthologue of Drosophila melanogaster; source: E. coli BL21(DE3) Rosetta, co-expressed (pST44), purified (His-Trap, ResourceQ, Superdex 200); copies: 1 + 1 + 1 + 1
T2 sequence (looked up) 1: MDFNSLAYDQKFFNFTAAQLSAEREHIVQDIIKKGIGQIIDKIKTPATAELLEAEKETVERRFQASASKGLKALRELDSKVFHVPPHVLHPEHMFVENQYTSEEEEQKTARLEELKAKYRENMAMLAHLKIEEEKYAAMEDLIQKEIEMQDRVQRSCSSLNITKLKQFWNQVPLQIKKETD
T2 sequence (looked up) 2: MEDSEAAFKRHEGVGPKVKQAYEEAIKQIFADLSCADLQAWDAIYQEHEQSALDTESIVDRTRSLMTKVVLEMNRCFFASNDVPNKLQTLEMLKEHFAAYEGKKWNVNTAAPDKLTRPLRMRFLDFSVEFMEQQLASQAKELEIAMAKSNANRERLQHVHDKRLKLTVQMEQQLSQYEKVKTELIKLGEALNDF
T2 sequence (looked up) 3: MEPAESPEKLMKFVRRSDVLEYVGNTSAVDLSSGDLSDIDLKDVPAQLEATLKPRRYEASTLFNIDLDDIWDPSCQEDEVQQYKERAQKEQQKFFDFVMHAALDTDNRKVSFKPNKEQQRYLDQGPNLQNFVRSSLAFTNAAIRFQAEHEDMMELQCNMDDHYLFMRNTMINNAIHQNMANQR
T2 sequence (looked up) 4: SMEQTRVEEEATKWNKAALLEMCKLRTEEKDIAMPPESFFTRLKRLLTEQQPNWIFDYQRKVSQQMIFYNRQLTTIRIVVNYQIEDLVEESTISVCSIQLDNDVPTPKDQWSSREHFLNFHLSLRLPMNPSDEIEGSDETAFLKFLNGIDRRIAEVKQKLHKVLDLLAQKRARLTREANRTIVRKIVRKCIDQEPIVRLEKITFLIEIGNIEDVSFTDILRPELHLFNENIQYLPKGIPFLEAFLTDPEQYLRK

T3: DmMis12b complex (Mis12:Nnf1b:Kmn1) (Drosophila melanogaster, UniProt Q9VS01 1-181; Q8IPW3 1-204; Q9VYX4 1-183)
T3 construct: Mis12 subunit of the Drosophila melanogaster Mis12 complex; Nnf1b (Nnf1R-2), Drosophila melanogaster; Kmn1, the Nsl1 orthologue of Drosophila melanogaster; source: E. coli BL21(DE3) Rosetta, co-expressed (pST44), purified (His-Trap, ResourceQ, Superdex 200); copies: 1 + 1 + 1
T3 sequence (looked up) 1: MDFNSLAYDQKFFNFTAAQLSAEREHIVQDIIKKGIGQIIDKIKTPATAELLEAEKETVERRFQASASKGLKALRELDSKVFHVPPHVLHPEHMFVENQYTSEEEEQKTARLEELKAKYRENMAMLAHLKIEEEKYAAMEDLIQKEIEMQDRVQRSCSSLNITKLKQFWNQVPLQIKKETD
T3 sequence (looked up) 2: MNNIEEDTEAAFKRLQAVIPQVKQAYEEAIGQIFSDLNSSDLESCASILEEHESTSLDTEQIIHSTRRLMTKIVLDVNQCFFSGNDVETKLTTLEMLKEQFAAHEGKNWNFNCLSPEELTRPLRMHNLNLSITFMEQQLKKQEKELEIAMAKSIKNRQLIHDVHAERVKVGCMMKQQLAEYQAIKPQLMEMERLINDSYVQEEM
T3 sequence (looked up) 3: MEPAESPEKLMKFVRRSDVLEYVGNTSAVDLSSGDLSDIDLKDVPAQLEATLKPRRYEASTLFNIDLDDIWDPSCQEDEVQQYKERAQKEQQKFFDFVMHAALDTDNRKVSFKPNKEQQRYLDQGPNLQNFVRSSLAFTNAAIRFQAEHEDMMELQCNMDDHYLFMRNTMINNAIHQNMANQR

B1: DmCENP-C^1–105 (domain or fragment, Drosophila melanogaster, UniProt Q9VHP9 1-105, looked up)
chain: MSKPQNNDTLELDDILSQPVKDKERFAAFMMRKLAENKPAQNDNLFGNFKLDFDLDFEVPLIKKSQAKPKSKLPEVQPLGELVSKNSAATEKVNEPPVDQAPNEN
notes: source: E. coli BL21(DE3) Rosetta, purified (His-Trap, ResourceQ, Superdex 200)
B2: Spc105R^1707–1960 (domain or fragment, Drosophila melanogaster, UniProt M9PIC9 1707-1960, looked up)
chain: SMEQTRVEEEATKWNKAALLEMCKLRTEEKDIAMPPESFFTRLKRLLTEQQPNWIFDYQRKVSQQMIFYNRQLTTIRIVVNYQIEDLVEESTISVCSIQLDNDVPTPKDQWSSREHFLNFHLSLRLPMNPSDEIEGSDETAFLKFLNGIDRRIAEVKQKLHKVLDLLAQKRARLTREANRTIVRKIVRKCIDQEPIVRLEKITFLIEIGNIEDVSFTDILRPELHLFNENIQYLPKGIPFLEAFLTDPEQYLRK
notes: Soluble only when co-expressed with the Mis12a or Mis12b complex

What was measured:
Assay in all cases: AUC; sedimentation velocity, 42 000 rpm, 20°C, 20 mM Tris pH 8, 0.15 M NaCl, 1 mM TCEP, absorbance at 280 nm, c(S) analysis with SEDFIT
Conditions in all cases: both partners purified
[1] = biological target: T1, DmMis12a complex (Mis12:Nnf1a:Kmn1)
[2] = biological target: T2, Mis12a:Spc105R^1707–1960 complex
[3] = biological target: T3, DmMis12b complex (Mis12:Nnf1b:Kmn1)

Binder	stoichiometry N [1]	stoichiometry N [2]	stoichiometry N [3]
B1	1	1	–
B2	1	–	1
